Assay results reported in patent publication US20090298765A1 (Takeda / Millennium, published 2009).
Starred links: 1 amine or outer side, 2 acyl side, 3 side chain; linkers in the order of their positions; H or OH if unused. Non-standard residues stand in square brackets, D forms with d. Primed or numbered codes have the meaning given here. No end group written: not given here. *: point of attachment. Trp(For)″ = Trp(CHO), formyl-Trp, O=Cn1cc(C[C@H](N[*:1])C(=O)[*:2])c2ccccc21; Phe(3-CF3) = N[C@@H](Cc1cccc(C(F)(F)F)c1)C(=O)O; Phe(4-CN) = N#Cc1ccc(C[C@H](N)C(=O)O)cc1; Phe(4-Cl) = N[C@@H](Cc1ccc(Cl)cc1)C(=O)O; Phe(3-F) = N[C@@H](Cc1cccc(F)c1)C(=O)O; Phe(4-F) = N[C@@H](Cc1ccc(F)cc1)C(=O)O; Phe(2-F) = N[C@@H](Cc1ccccc1F)C(=O)O; Arg(Me) = CNC(=N)NCCC[C@H](N)C(=O)O; Fmoc = O=C(OCC1c2ccccc2-c2ccccc21)*; 2Pal = N[C@@H](Cc1ccccn1)C(=O)O; 3Pal = N[C@@H](Cc1cccnc1)C(=O)O; Cha = N[C@@H](CC1CCCCC1)C(=O)O; Arg(Et)″ = ethylated arginine; Dab = NCC[C@H](N)C(=O)O; azaGly = NNC(=O)O

B1: des(1)-MS10 (peptide)
peptide: NWNSFGLRF-NH2
notes: also called Compound No. 4
B2: [Ala1]MS10 (peptide)
peptide: ANWNSFGLRF-NH2
notes: also called Compound No. 72
B3: [Ala3]MS10 (peptide)
peptide: YNANSFGLRF-NH2
notes: also called Compound No. 67
B4: [Asp2]MS10 (peptide)
peptide: YDWNSFGLRF-NH2
notes: also called Compound No. 57
B5: [Asp3]MS10 (peptide)
peptide: YNDNSFGLRF-NH2
notes: also called Compound No. 70
B6: [D-Tyr1,D-Ala3,AzaGly7,Arg(Me)9]MS10 (peptide)
peptide: [dY]N[dA]NSF[azaGly]L[Arg(Me)]F-NH2
notes: also called Compound No. 252
B7: [D-Tyr1,Pro3,AzaGly7,Arg(Me)9]MS10 (peptide)
peptide: [dY]NPNSF[azaGly]L[Arg(Me)]F-NH2
modifications: N-terminus assumed
SMILES: CNC(=N)NCCC[C@H](NC(=O)[C@H](CC(C)C)NC(=O)NNC(=O)[C@H](Cc1ccccc1)NC(=O)[C@H](CO)NC(=O)[C@H](CC(N)=O)NC(=O)[C@@H]1CCCN1C(=O)[C@H](CC(N)=O)NC(=O)[C@H](N)Cc1ccc(O)cc1)C(=O)N[C@@H](Cc1ccccc1)C(N)=O
notes: also called Compound No. 253
B8: [D-Tyr1,Ser3,AzaGly7,Arg(Me)9]MS10 (peptide)
peptide: [dY]NSNSF[azaGly]L[Arg(Me)]F-NH2
notes: also called Compound No. 191
B9: [D-Tyr1,Thr3,AzaGly7,Arg(Me)9]MS10 (peptide)
peptide: [dY]NTNSF[azaGly]L[Arg(Me)]F-NH2
notes: also called Compound No. 221
B10: [Leu1]MS10 (peptide)
peptide: LNWNSFGLRF-NH2
notes: also called Compound No. 73
B11: [Leu2]MS10 (peptide)
peptide: YLWNSFGLRF-NH2
notes: also called Compound No. 59
B12: [Leu3]MS10 (peptide)
peptide: YNLNSFGLRF-NH2
notes: also called Compound No. 68
B13: [Lys3]MS10 (peptide)
peptide: YNKNSFGLRF-NH2
notes: also called Compound No. 71
B14: [Lys9]MS10 (peptide)
peptide: YNWNSFGLKF-NH2
notes: also called Compound No. 44
B15: [Ser3]MS10 (peptide)
peptide: YNSNSFGLRF-NH2
notes: also called Compound No. 69
B16: [Trp(For)10]MS10 (peptide)
peptide: YNWNSFGLR[Trp(For)″]-NH2
notes: also called Compound No. 186
B17: [Tyr2]MS10 (peptide)
peptide: YYWNSFGLRF-NH2
notes: also called Compound No. 58
B18: [Tyr5]MS10 (peptide)
peptide: YNWNYFGLRF-NH2
notes: also called Compound No. 23
B19: [Tyr6]MS10 (peptide)
peptide: YNWNSYGLRF-NH2
notes: also called Compound No. 150
B20: [Val8]MS10 (peptide)
peptide: YNWNSFGVRF-NH2
notes: also called Compound No. 107
B21: des(1-2)-Acetyl-[Arg3,AzaGly7,Arg(Me)9]MS10 (peptide)
peptide: Ac-RNSF[azaGly]L[Arg(Me)]F-NH2
SMILES: CNC(=N)NCCC[C@H](NC(=O)[C@H](CC(C)C)NC(=O)NNC(=O)[C@H](Cc1ccccc1)NC(=O)[C@H](CO)NC(=O)[C@H](CC(N)=O)NC(=O)[C@H](CCCNC(=N)N)NC(C)=O)C(=O)N[C@@H](Cc1ccccc1)C(N)=O
notes: also called Compound No. 275
B22: des(1-2)-Acetyl-[Thr3,AzaGly7,Arg(Me)9]MS10 (peptide)
peptide: Ac-TNSF[azaGly]L[Arg(Me)]F-NH2
SMILES: CNC(=N)NCCC[C@H](NC(=O)[C@H](CC(C)C)NC(=O)NNC(=O)[C@H](Cc1ccccc1)NC(=O)[C@H](CO)NC(=O)[C@H](CC(N)=O)NC(=O)[C@@H](NC(C)=O)[C@@H](C)O)C(=O)N[C@@H](Cc1ccccc1)C(N)=O
notes: also called Compound No. 276
B23: [D-Tyr1,Cha3,6,Arg(Me)9]MS10 (peptide)
peptide: [dY]N[Cha]NS[Cha]GL[Arg(Me)]F-NH2
notes: also called Compound No. 181
B24: des(1-2)-[D-Trp3,Arg(Me)9]MS10 (peptide)
peptide: [dW]NSFGL[Arg(Me)]F-NH2
notes: also called Compound No. 223
B25: [D-Tyr1,D-Trp3,AzaGly7,Arg(Me)9]MS10 (peptide)
peptide: [dY]N[dW]NSF[azaGly]L[Arg(Me)]F-NH2
notes: also called Compound No. 236
B26: [D-Tyr1,Pya(3)3,AzaGly7,Arg(Me)9]MS10 (peptide)
peptide: [dY]N[3Pal]NSF[azaGly]L[Arg(Me)]F-NH2
notes: also called Compound No. 251
B27: [D-Tyr1,D-Asn2,Cha3,AzaGly7,Arg(Me)9]MS10 (peptide)
peptide: [dY][dN][Cha]NSF[azaGly]L[Arg(Me)]F-NH2
notes: also called Compound No. 283
B28: [D-Tyr1,Pya(2)3,AzaGly7,Arg(Me)9]MS10 (peptide)
peptide: [dY]N[2Pal]NSF[azaGly]L[Arg(Me)]F-NH2
notes: also called Compound No. 285
B29: [1Ψ2,CH2NH,AzaGly7,Arg(Me)9]-MS10 (peptide)
peptide: YNWNSF[azaGly]L[Arg(Me)]F-NH2
modifications: also: bond 1-2 CONH replaced by CH2NH
notes: also called Compound No. 299
B30: [7Ψ8,CH2NH,D-Tyr1,Arg(Me)9]MS10 (peptide)
peptide: [dY]NWNSFGL[Arg(Me)]F-NH2
modifications: also: bond 7-8 CONH replaced by CH2NH
notes: also called Compound No. 307
B31: [Dab9]MS10 (peptide)
peptide: YNWNSFGL[Dab]F-NH2
notes: also called Compound No. 313
B32: des(1-3)-D-Glucuronyl-[AzaGly7,Arg(Me)9]MS10 (peptide)
peptide: {D‑glucuronyl}-NSF[azaGly]L[Arg(Me)]F-NH2
notes: also called Compound No. 328
B33: [Pya(3)10]MS10 (peptide)
peptide: YNWNSFGLRX
modifications: Pya(3)10; C-terminal amide
notes: also called Compound No. 60
B34: [Phe(4F)10]MS10 (peptide)
peptide: YNWNSFGLR[Phe(4-F)]-NH2
notes: also called Compound No. 61
B35: [Phe(4CN)10]MS10 (peptide)
peptide: YNWNSFGLR[Phe(4-CN)]-NH2
notes: also called Compound No. 77
B36: [Phe(4Cl)10]MS10 (peptide)
peptide: YNWNSFGLR[Phe(4-Cl)]-NH2
notes: also called Compound No. 130
B37: [D-Tyr1,D-Trp3,Arg(Me)9]MS10 (peptide)
peptide: [dY]N[dW]NSFGL[Arg(Me)]F-NH2
notes: also called Compound No. 142
B38: des(1-2)-Fmoc-[Arg(Me)9]MS10 (peptide)
peptide: Fmoc-WNSFGL[Arg(Me)]F-NH2
notes: also called Compound No. 145
B39: [Phe(2F)10]MS10 (peptide)
peptide: YNWNSFGLR[Phe(2-F)]-NH2
notes: also called Compound No. 19
B40: [D-Tyr1,Arg(Et)9]MS10 (peptide)
peptide: [dY]NWNSFGL[Arg(Et)″]F-NH2
notes: also called Compound No. 192
B41: [Phe(3F)10]MS10 (peptide)
peptide: YNWNSFGLR[Phe(3-F)]-NH2
notes: also called Compound No. 197
B42: [Phe(3,4F2)10]MS10 (peptide)
peptide: YNWNSFGLR[Phe(3,4F2)]-NH2
notes: also called Compound No. 198
B43: [Phe(3CF3)10]MS10 (peptide)
peptide: YNWNSFGLR[Phe(3-CF3)]-NH2
notes: also called Compound No. 200

What follows are binders tested against T1, human OT7T175 (metastin receptor) (human, UniProt Q969F8 1-398) (assay: competition with Cy-5 metastin (40-54) on hOT7T175-CHO cells, FMAT).
T1 construct: expressed on CHO cells; also called hOT7T175; hOT7T175-expressed CHO cells
T1 sequence (Q969F8 whole entry L364H): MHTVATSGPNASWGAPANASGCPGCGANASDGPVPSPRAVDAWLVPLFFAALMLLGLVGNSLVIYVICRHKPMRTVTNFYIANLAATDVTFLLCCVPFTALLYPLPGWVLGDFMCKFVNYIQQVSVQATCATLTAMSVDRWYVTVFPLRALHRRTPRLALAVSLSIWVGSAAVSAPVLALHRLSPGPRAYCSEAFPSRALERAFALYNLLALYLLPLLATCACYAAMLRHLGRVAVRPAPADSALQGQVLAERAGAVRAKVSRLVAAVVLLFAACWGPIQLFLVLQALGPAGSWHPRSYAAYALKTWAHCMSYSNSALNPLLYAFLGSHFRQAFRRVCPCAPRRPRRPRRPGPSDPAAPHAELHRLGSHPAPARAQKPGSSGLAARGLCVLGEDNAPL
Procedure: hOT7T175-Expressed CHO cells were cultured in MEM-α medium (nucleic acid-free) containing 10% dialyzed serum. The medium was removed and the adhered cells were washed with PBS. Then, PBS containing 5 mM EDTA was added and the cells were scraped from a flask with a cell scraper.
To each well of a 96-Well Black Clear Bottom Microplate (Applied Biosystems, Inc.), 10 μL of assay buffer containing 1% dimethylsulfoxide was added to examine total binding, 10 μL of 10 μM non-labeled peptide (having the same amino acid sequence as that of labeled one) solution diluted with assay buffer to examine non-specific binding, and 10 μL of a test compound diluted with assay buffer to examine a binding inhibition activity of the test compound, and furthermore, 90 μL each of the cell suspension was dispensed to each well. […] Specific binding is calculated as non-specific binding subtracted from total binding. The binding inhibition activity of a test compound is shown by a ratio of the value obtained by subtracting a measured value in presence of a test compound from the total binding to the specific binding.

Binder	IC50 [nM]
B1	260
B2	540
B3	27
B4	100
B5	200
B6	580
B7	27
B8	300
B9	95
B10	220
B11	340
B12	7.7
B13	66
B14	190
B15	83
B16	460
B17	16
B18	400
B19	320
B20	120
B21	410
B22	480

Binder	IC50 [nM]
B23	19
B24	760
B25	42
B26	87
B27	0.69
B28	40
B29	1.2
B30	64
B31	690
B32	470
B33	170
B34	13
B35	7.4
B36	42
B37	26
B38	120
B39	8.6
B40	530
B41	170
B42	170
B43	340
